The values below come from patent US20260234232A1 (QUAERITE BIOPHARM RESEARCH BEIJING, published 2026).

Numbering of substitutions follows the chain as printed.

The chains are these.
B1: V15 (VHH)
VHH: QLQLVESGGGSVQPGGSLRLSCEVSGRTFASYTMGWFRQAPGKEREFVVAISKGGYKYDSVSLEARFTISKDNTKNTVYLQMNSLKPEDTAVYYCAGTRAYGSSRLRLAETYEYWGQGTQVTVSS
notes: Monovalent nanobody; tag not described here, the ELISA detects a His tag
B2: 2V15-9GS (VHH)
chain: QLQLVESGGGSVQPGGSLRLSCEVSGRTFASYTMGWFRQAPGKEREFVVAISKGGYKYDSVSLEARFTISKDNTKNTVYLQMNSLKPEDTAVYYCAGTRAYGSSRLRLAETYEYWGQGTQVTVSSGGGGSGGGSQLQLVESGGGSVQPGGSLRLSCEVSGRTFASYTMGWFRQAPGKEREFVVAISKGGYKYDSVSLEARFTISKDNTKNTVYLQMNSLKPEDTAVYYCAGTRAYGSSRLRLAETYEYWGQGTQVTVSS
notes: Tandem bivalent nanobody
B3: V43 (VHH)
VHH: B1 VHH with A30T, E110N
notes: as for B1
B4: 2V1-9GS (VHH)
chain: B2 chain with A30S, G97A, E110D, A164S, G231A, E244D
notes: Tandem bivalent nanobody
B5: 2V30-9GS (VHH)
chain: B2 chain with A30S, E44G, S60A, G97A, E110K, A164S, E178G, S194A, G231A, E244K
notes: Tandem bivalent nanobody
B6: 2V41-9GS (VHH)
chain: B2 chain with A30S, E110K, A164S, E244K
notes: Tandem bivalent nanobody
B7: 2V36-9GS (VHH)
chain: B2 chain with E110D, E244D
notes: Tandem bivalent nanobody
B8: 2V29-9GS (VHH)
chain: B2 chain with A30S, E110N, A164S, E244N
notes: Tandem bivalent nanobody
B9: 2V33-9GS (VHH)
chain: B2 chain with A30S, G97A, E110K, A164S, G231A, E244K
notes: Tandem bivalent nanobody

As usually defined, the IC50 is the concentration needed to halve the response being measured. Higher therefore signals lower potency. As a reminder, the Kd is the concentration at which binding is half-saturated. Lower therefore signals higher affinity. In general, koff refers to the first-order rate constant of dissociation. What is called kon is a measure of how fast the partners come together. A lower kon goes with slower complex formation. Usually EC50 stands for the concentration at which the effect is half-maximal. Read a high EC50 as lower potency in that assay.

T1 sequence (P15692 other isoform, or with tags, fused parts or gaps limits assumed): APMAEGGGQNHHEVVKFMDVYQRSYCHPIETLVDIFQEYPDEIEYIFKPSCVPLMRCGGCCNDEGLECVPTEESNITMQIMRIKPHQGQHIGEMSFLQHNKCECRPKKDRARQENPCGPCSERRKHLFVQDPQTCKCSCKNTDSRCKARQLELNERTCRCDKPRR

One test addresses T1, human VEGFA165 (human, UniProt P15692-4 27-191).
T1 construct: Bought protein from two suppliers, treated as one molecule; the supplier is named under assay; also called antigen VEGFA
As to the kind of experiment: competitive ELISA, coated VEGFA, competitor VEGFR2-ECD-Fc 1 nM. Here is the method:
(§1) Antigen VEGFA was diluted with ELISA coating buffer (final concentration of […]) and added to a 96-well microplate at 100 μL/well for coating at 4° C. overnight. […] The plate was incubated at 37° C. for 1 h and washed 3 times with PBST. Subsequently, a dilution of HRP-labeled goat anti-human IgG antibody (HRP-conjugated Goat Anti-Human IgG, purchased from Proteintech, Cat. No.: A21050) was added, and the plate was further incubated at room temperature for 45 min. After the plate was washed, 100 μL of TMB (purchased from Tiangen Biotech, Cat. No.: PA107-01) was added to each well for color development at 37° C. for 15 min, followed by the addition of 50 μL of stopping solution. The absorbance at 450 nm (OD450) was measured using a microplate reader.
On the technique in general: An ELISA detects its analyte on a solid surface through an enzyme-linked reagent.
For B1, the IC50 is 6.65 nM.
Same read-out and setting: in the case of B2 it was 3.61 nM.

Another test concerns the target T1, human VEGFA165. As to the kind of experiment: SPR Biacore 8K, VEGFA165 on CM5, nanobody analyte, 1:1 fit. Here is the method:
Using the Biacore 8K instrument (Cytiva), the antigen VEGFA165 (label-free, purchased from Sino Biological, Cat. No.: HPLC-10008-HNAH) as the ligand was coupled onto a CM5 chip through amino-coupling reagents (EDC and NHS), with the coupling level being about 400 RU. The mobile phase buffer was HBS-EP (0.01 M HEPES pH 7.4, 0.15 M NaCl, 3 mM EDTA, 0.005% v/v Tween 20) during the experiment. […] In the kinetic analysis, the binding time between the antigen and the antibody was 240 s, the dissociation time was 1500 s, and the flow rate was 30 μL/min. In a multi-cycle mode, the chip was regenerated with 100 mM hydrochloric acid.
(Surface plasmon resonance follows binding to a sensor surface in real time, without labels.)
Consider B3, for which the Kd turned out to be 0.116 nM, the koff amounted to 8.63e-05 s⁻¹ and the kon came to 743000 M⁻¹ s⁻¹.
For B4, in that order: 0.0224 nM, 5.05e-05 s⁻¹ and 2.25e+06 M⁻¹ s⁻¹.
B5: binding was characterised by a dissociation constant (Kd) of 0.0222 nM, the koff was 9.29e-05 s⁻¹ and the association rate constant (kon) was 4.18e+06 M⁻¹ s⁻¹.

For the next test, the target named is T1, human VEGFA165. As to the kind of experiment: ELISA, coated human VEGFA165, anti-His detection. Here is the method: (§2) Antigen human VEGFA165 (label-free, purchased from Sino Biological, Cat. No.: HPLC-10008-HNAH, hereinafter referred to as VEGFA) was diluted with ELISA coating buffer to a final concentration of 0.3 μg/mL and added to a microplate at 100 μL/well for coating at 4° C. overnight. […] The solution used for antibody dilution was PBS containing 0.1% Tween-20 (pH 7.4), i.e., PBST. After being incubated at 37° C. for 1 h, the microplate was washed 3 times with PBST, and a dilution of His-Tag murine monoclonal antibody (purchased from Proteintech, Cat. No.: 66005-1-Ig) was added. The plate was further incubated at 37° C. for 1 h and washed again. Subsequently, a dilution of HRP-labeled goat anti-mouse IgG antibody (HRP-conjugated Affinipure Goat Anti-Mouse IgG (H+L), purchased from Proteintech, Cat. No.: SA00001-1) was added, and the plate was incubated at room temperature for 45 min. After the plate was washed, 100 μL of TMB (purchased from Tiangen Biotech, Cat. No.: PA107-01) was added to each well for color development at 37° C. for 15 min, followed by the addition of 50 μL of stopping solution. The absorbance at 450 nm (OD450) was measured using a microplate reader.
In the case of B6, the EC50 worked out at 0.27 nM.
In the case of B2, it took 0.24 nM to reach a half-maximal effect (EC50).
In turn, B7 yielded an EC50 of 0.3 nM.
Turning to B4, a half-maximal response (EC50) required 0.09 nM.
The same measure, in the same setting: in the case of B8 it was 0.31 nM.
On to B5, for which the EC50 is 0.25 nM.
The same measure, in the same setting: for B9 the value was 0.32 nM.

A further test addresses T1, human VEGFA165. The test is described as follows: ELISA, coated human VEGFA165, anti-His detection. The source holds these as a separate data set. The procedure: as §2
As for B2, the EC50 came out at 0.22 nM.

A further test addresses T1, human VEGFA165. As to the kind of experiment: competitive ELISA, coated VEGFA, competitor VEGFR2-ECD-Fc 1 nM. The source holds these as a separate data set. The procedure: as §1
On to B6, for which the IC50 worked out at 1.97 nM.
Regarding B2, the IC50 worked out at 2.07 nM. The IC50 values of the last two molecules are within 1.5-fold of each other.
Take B7: the IC50 was determined as 3 nM.
Molecule B4 returned an IC50 of 2.97 nM.
Same read-out and setting: in the case of B8 it was 1.77 nM; in that of B5, 1.41 nM; in that of B9, 3.48 nM.

In the next test the target is T1, human VEGFA165. As to the kind of experiment: ELISA, coated human VEGFA165, anti-His detection. The source holds these as a separate data set. The procedure: as §2
Molecule B2 displayed a concentration giving a half-maximal response (EC50) of 0.25 nM.

A further test addresses T1, human VEGFA165. As to the kind of experiment: competitive ELISA, coated VEGFA, competitor VEGFR2-ECD-Fc 1 nM. The source holds these as a separate data set.
For the molecule B2, the IC50 was found to be 3.13 nM and the “Maximum inhibition rate (%)” value amounted to 88.4%.

The next test deals with T1, human VEGFA165. The test is described as follows: ELISA, coated human VEGFA165, anti-His detection. The source holds these as a separate data set. The procedure:
as §2
The experimental procedure was the same as that described in “2.
For the molecule B1, the EC50 was 1 nM.
On the same count and under the same terms, in the case of B3 it was 0.31 nM.
On the same count and under the same terms, for B2 the value was 0.24 nM.
Same read-out and setting: for B4 the value was 0.09 nM.
